Test results: patent US20050272633A1 (YEDA RESEARCH AND DEVELOPMENT, published 2005)

How the values were obtained:
[1] = target: T1, NF-κB-inducing kinase, NIK (MAP3K14), full length (human, UniProt Q99558 1-947); experiment: yeast two-hybrid, NIK as bait, 41 MDD as prey
T1 construct: range 1-947; also called full length NIK; endogenous NIK
Text: (§1) To define the domain of cγc responsible for binding NIK, deletion mutants of cγc have been created and their binding to NIK analysed (FIG. 1). The deletion mutants were created by sequentially introduction of stop codons in the cytoplasmic domain of cγc, in gaps of 10-20 amino acids. The DNA encoding the full-length cγc or its deletion mutants were introduced into the pGADT7 prey vector (Clontech) for testing their binding to NIK in the SFY526 heterologous yeast strain by the two hybrid assay. The SFY526 yeast strain is […] for TRP and Leu. pGBKT plasmids (bait vector) have the Trp1 wild type gene and pGAD has the wild type Leu2 gene. Thus, only doubly transfected yeast will grow on selective Leu Trp media. Functional GAL4 will be restored in doubly transfected yeast when the chimeric proteins fused to GAL4 domains interact, bringing the activation domain and DNA binding domain of GAL4 to close proximity. The level of LAC-Z expression is indicative of the strength of the protein-protein interaction. Lac-Z activity was assessed by the standard beta-gal/colony lift filter assay (Clontech, Yeast Protocol Handbook, Chapter VI).
(§2) The binding of 41 MDD polypeptide to full length NIK or C-terminus NIK was tested in both orientations (i.e. 41 MDD as the pray and NIK as the bait and vice versa). […]

[2] = target: T2, NIK624-947 (C-terminal domain of NIK) (human, UniProt Q99558 624-947); experiment: yeast two-hybrid, NIK624-947 as bait, 41 MDD as prey
T2 construct: GAL4 DNA-BD or AD fusion in the two-hybrid tests; expressed from pcdnNIK (co-IP) or pcS3MTdnNIK (reporter assay) in 293-T cells; also called C-terminus of NIK; NIK C-terminus
T2 sequence (Q99558 624-947 limits assumed): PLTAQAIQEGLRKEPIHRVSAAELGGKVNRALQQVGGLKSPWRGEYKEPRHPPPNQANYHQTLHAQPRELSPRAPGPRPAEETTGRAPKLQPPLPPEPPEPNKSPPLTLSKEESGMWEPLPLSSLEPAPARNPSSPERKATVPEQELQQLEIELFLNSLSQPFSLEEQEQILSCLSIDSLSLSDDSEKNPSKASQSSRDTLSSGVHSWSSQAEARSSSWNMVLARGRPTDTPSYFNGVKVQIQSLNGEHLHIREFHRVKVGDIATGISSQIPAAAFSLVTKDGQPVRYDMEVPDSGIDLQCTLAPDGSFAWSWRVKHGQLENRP
Text: as §1, §2

[3] = target: T1, NF-κB-inducing kinase, NIK (MAP3K14), …; experiment: yeast two-hybrid

T1 sequence (Q99558 whole entry): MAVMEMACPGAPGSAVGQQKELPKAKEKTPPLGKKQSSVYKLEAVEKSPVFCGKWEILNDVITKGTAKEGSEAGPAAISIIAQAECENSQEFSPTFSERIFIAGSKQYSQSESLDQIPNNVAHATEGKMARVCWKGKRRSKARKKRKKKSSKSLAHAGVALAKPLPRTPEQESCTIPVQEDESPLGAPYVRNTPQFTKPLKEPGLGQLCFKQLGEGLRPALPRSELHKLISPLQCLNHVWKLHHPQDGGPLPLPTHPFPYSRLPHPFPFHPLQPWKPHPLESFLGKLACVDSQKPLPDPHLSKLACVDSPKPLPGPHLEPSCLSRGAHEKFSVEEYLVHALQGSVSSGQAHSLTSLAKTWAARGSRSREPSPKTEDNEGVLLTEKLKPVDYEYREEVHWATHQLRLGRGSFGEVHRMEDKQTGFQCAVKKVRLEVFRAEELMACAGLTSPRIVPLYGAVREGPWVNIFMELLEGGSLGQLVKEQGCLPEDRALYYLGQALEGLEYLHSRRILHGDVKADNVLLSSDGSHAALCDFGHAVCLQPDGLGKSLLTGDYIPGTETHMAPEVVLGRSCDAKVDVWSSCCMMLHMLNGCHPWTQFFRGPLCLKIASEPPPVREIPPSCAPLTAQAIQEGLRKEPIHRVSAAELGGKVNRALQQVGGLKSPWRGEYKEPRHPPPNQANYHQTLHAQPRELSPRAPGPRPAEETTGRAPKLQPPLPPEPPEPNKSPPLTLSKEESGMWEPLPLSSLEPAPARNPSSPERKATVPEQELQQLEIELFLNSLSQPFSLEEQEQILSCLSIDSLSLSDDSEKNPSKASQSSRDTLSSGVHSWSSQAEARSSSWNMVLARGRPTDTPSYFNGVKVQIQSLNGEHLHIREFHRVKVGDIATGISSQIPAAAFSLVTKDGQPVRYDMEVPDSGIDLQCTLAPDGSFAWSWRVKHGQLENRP

B1: cγc 329-369 (41 MDD polypeptide) (peptide)
chain: LCLVSEIPPKGGALGEGPGASPCNQHSPYWAPPCYTLKPET
notes: GAL4 fusion (bait or prey) in two-hybrid; also called 41 amino acid polypeptide from the membrane distal domain of cγc
B1: binds [1]; binds [2].

B2: 44MPD (cγc membrane proximal domain, residues 282-325) (peptide)
chain: WLERTMPRIPTLKNLEDLVTEYHGNFSAWSGVSKGLAESLQPDY
notes: Two-hybrid constructs comprising intracellular fragments close to the membrane proximal domain
B2: binds [3].
